Experimental data published in patent US5770410A, “Chiral synthesis with modified enzymes” (Genzyme Corporation, priority 1992, dated 1998).
Residue numbers refer to the chain shown, from its start. Names may count otherwise.

B1: Bacillus stearothermophilus lactate dehydrogenase, wild type, SEQ ID NO: 3 (Geobacillus stearothermophilus) (protein)
chain: MKNNGGARVVVIGAGFVGASYVFALMNQGIADEIVLIDANESKAIGDAMDFNHGKVFAPKPVDIWHGDYDDCRDADLVVICAGANQKPGETRLDLVDKNIAIFRSIVESVMASGFQGLFLVATNPVDILTYATWKFSGLPHERVIGSGTILDTARFRFLLGEYFSVAPQNVHAYIIGEHGDTELPVWSQAYIGVMPIRKLVESKGEEAQKDLERIFVNVRDAAYQIIEKKGATYYGIAMGLARVTRAILHNENAILTVSAYLDGLYGERDVYIGVPAVINRNGIREVIEIELNDDEKNRFHHSAATLKSVLARAFTR
notes: made in house; host or cells: E. coli
B2: Bacillus stearothermophilus lactate dehydrogenase mutant WTrs (restriction-site construct pLDHrs, Cys97Thr, Ala235Gly, Ala236Gly; loop SEQ ID No 7) … (protein)
chain: B1 chain with C81T, A222G, A223G
notes: made in house; host or cells: E. coli TG2
B3: Bacillus stearothermophilus lactate dehydrogenase mutant 235/6GG (Ala235Gly, Ala236Gly) (Geobacillus stearothermophilus; A222G/A223G) (protein)
chain: B1 chain with A222G, A223G
notes: as for B1

Legend:
Experiment in all cases: Steady-state kinetics, NADH-dependent reduction of 2-oxo acids (A340)
[1] = substrate: CC(=O)C(=O)O; type: biochemical, Bacillus stearothermophilus; conditions: other: -FBP, 25° C., pH 6
Experimental: (§1) Overnight cultures (11) were centrifuged and the packed cells were resuspended in 50 mM triethanolamine, pH 6.0. The cells were sonicated and the debris was removed by centrifugation. The protein in the supernatant was precipitated by the addition of 65% ammonium sulphate. The precipitate was spun down and resuspended in 50 mM triethanolamine, pH 6.0 and dialysed against the same buffer. After dialysis, NADH and FBP were added to the protein to final concentrations of 5 mM and 10 mM before loading onto an oxamate Sepharose column which had been pre-equilibrated with 50 mM triethanoloamine, pH 6.0, 3 mM NADH and 5 mM FBP. After washing off unbound protein with column buffer mutant LDH was eluted with 50 mM triethanolamine, pH 9.0, 0.3 M NaCl. The elutant was precipitated with 65% ammonium sulphate and then resuspended in and dialysed against 50 mM triethanolamine, pH 7.5. The protein was then loaded onto a Q-Sepharose Fast Flow column and eluted with a salt gradient. LDH eluted at a concentration of 0.25M NaCl. For the double glycine mutant enzyme, the first chromatography procedure with oxamate Sepharose was replaced by chromatography on Blue Sepharose -F3GA, otherwise the procedure was essentially the same. All proteins were judged to be greater than 98% pure from the intensity of Coomassie blue staining on an SDS Phast gel (Pharmacia). The yield of protein was usually 0.2 g/l of original broth.
(§2) Steady-state measurements were made by following the reduction in absorbance at 340 nm in the NADH/NAD^+ conversion. All assays were at 25° C. in the buffer Bis-Tris, pH 6, (20 mM), containing KC1 (50 mM) and when used fructose-1,6-bisphosphate at 5 mM. Protein concentration was determined from the absorbance at 280 nm using the value of 0.91 for 1 mg/ml protein in 1 cm path and an Mr of 33,000.
(§3) The specific substrates used in the evaluations are shown in the left column of Table 4. In Table 4, "235/6GG" denotes the mutant enzyme formed by substituting GlyGly for AlaAla at the 235-236 positions of the enzyme (Wilks et al., Biochemistry 1990, 29, 8587-8591), and "WTrs" denotes a mutant derived from the wild-type strain as shown in FIG. 1 of Wilks et al., Biochemistry 1992, 31, 7802-7806.

[2] = substrate: O=C(O)C(=O)CCc1ccccc1; type: biochemical, Bacillus stearothermophilus; conditions: other: +FBP (5 mM), 25° C., pH 6
Experimental: as §1, §2, §3

[3] = substrate: O=C(O)C(=O)Cc1ccccc1; type: biochemical, Bacillus stearothermophilus; conditions: other: +FBP (5 mM), 25° C., pH 6
Experimental: as §1, §2, §3

[4] = substrate: CC(=O)C(=O)O; type: biochemical; conditions: other: -FBP, 25° C., pH 6
Excerpt: (§4) Mutants were identified by making mini-preps and restricting with SacII and XbaI. Mutant mini-preps were restricted with EcoRI and XhoI and the small fragment was subcloned into PKK223-3 containing Ala235Gly, Ala236Gly mutant LDH from which the small EcoRI/XhoI fragment had been removed (Wilks et al. Biochemistry, 1990, 29, 8587). The resulting plasmid (pLDHrs) was transformed into competent E. coli TG2 cells.
as §1, §2, §3

[5] = substrate: CC(C)CC(=O)C(=O)O; type: biochemical; conditions: other: -FBP, 25° C., pH 6
Excerpt: as §4, §1, §2, §3

[6] = substrate: CCCCC(=O)C(=O)O; type: biochemical; conditions: other: -FBP, 25° C., pH 6
Excerpt: as §4, §1, §2, §3

[7] = substrate: O=C(O)C(=O)CCc1ccccc1; type: biochemical; conditions: 25° C., pH 6
Excerpt: as §4, §1, §2, §3

[8] = substrate: O=C(O)C(=O)Cc1ccccc1; type: biochemical; conditions: 25° C., pH 6
Excerpt: as §4, §1, §2, §3

Protein	Km [1] [mM]	kcat [1] [s⁻¹]	kcat/Km [1] [M⁻¹ s⁻¹]	Km [2] [mM]	kcat [2] [s⁻¹]	kcat/Km [2] [M⁻¹ s⁻¹]	Km [3] [mM]	kcat [3] [s⁻¹]	kcat/Km [3] [M⁻¹ s⁻¹]	Km [4] [mM]	Km [5] [mM]	Km [6] [mM]	Km ([7]; other: +FBP (5 mM)) [mM]	kcat ([7]; other: +FBP (5 mM)) [s⁻¹]	kcat/Km ([7]; other: +FBP (5 mM)) [M⁻¹ s⁻¹]	Km ([7]; other: -FBP) [mM]	Km ([8]; other: +FBP (5 mM)) [mM]	kcat ([8]; other: +FBP (5 mM)) [s⁻¹]	kcat/Km ([8]; other: +FBP (5 mM)) [M⁻¹ s⁻¹]	Km ([8]; other: -FBP) [mM]
B1	2	250	50000	0.6	6	10000	1.8	32.7	18000	–	–	–	–	–	–	–	–	–	–	–
B2	–	–	–	–	–	–	–	–	–	100	28	30	4	6	1500	12	6	58	9600	21
B3	–	–	–	13	7	538	4.5	53.4	12000	–	–	–	–	–	–	–	–	–	–	–
